US20230212320A1

Tests used:
[1] = biological target: Fc2 of PTC039 (IgG1 Fc chain with L351G, T366S, L368A, Y407V) (Homo sapiens (Human)) [IgG part: P0DOX5]; experiment: SE-HPLC, PTC040 co-expression
[2] = biological target: Fc2 of PTC039 (IgG1 Fc chain with L351G, T366S, L368A, Y407V) (Homo sapiens (Human)) [IgG part: P0DOX5]; experiment: SE-HPLC, PTC074 co-expression

Fc-2-2 homo-dimer (%) [1]: 1.5%
Fc-2-2 homo-dimer (%) [2]: 0.96%
Substance: Fc2 of PTC039 (IgG1 Fc chain with L351G, T366S, L368A, Y407V) (from UniProt P0DOX5 218-449)
